Values of other authors, collected in article PMC12083247.

Assays:
S100A10 (Homo sapiens) = S100A10 (Homo sapiens) (UniProt P60903)
calpain (Homo sapiens) = calpain (Homo sapiens) (UniProt P07384)
Sequence of UniProt P07384 (P07384 2-714): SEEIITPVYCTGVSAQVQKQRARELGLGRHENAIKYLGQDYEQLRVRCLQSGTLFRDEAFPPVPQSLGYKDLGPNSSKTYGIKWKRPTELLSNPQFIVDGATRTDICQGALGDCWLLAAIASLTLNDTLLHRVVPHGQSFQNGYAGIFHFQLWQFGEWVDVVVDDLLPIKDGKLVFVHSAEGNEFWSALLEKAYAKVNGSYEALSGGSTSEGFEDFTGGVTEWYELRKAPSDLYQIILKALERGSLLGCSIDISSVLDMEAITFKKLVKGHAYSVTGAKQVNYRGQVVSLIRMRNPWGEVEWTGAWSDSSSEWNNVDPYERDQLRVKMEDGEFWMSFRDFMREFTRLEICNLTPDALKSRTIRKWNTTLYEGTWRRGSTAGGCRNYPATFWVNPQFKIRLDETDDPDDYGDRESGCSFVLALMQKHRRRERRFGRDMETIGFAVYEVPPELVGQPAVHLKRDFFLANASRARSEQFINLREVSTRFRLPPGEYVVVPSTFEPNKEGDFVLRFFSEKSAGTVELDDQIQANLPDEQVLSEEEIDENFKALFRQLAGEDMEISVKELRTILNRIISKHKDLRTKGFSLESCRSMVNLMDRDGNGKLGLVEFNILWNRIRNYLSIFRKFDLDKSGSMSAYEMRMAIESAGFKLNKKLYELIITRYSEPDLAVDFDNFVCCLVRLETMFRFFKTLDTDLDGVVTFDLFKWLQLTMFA

Sequence of UniProt P60903 (P60903 whole entry): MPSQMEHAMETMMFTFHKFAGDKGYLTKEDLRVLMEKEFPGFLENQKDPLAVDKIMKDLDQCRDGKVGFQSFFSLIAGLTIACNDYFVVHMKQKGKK

Substance	Kd (S100A10 (Homo sapiens)) [nM]	Ki (calpain (Homo sapiens)) [nM]
annexin A2 N-terminal 10-12 residues (from UniProt P07355)	13	–
calpastatin domain I (from UniProt P20810)	–	15
